Assay results taken from PMC4259310.

How the values were obtained:
[1] = molecular target: Snake Adenovirus 1 (SnAdV-1) fibre head domain, construct 234-345, native (Snake Adenovirus 1 (SnAdV-1)); test: crystal structure
[2] = molecular target: Snake Adenovirus 1 (SnAdV-1) fibre protein construct 171-345 (Snake Adenovirus 1 (SnAdV-1)); test: crystal structure

Substance	stoichiometry N [1]	stoichiometry N [2]
Snake Adenovirus 1 (SnAdV-1) fibre head domain, construct 234-345, native (domain or fragment)	3	–
Snake Adenovirus 1 (SnAdV-1) fibre protein construct 171-345 (domain or fragment)	–	3
